The values below come from patent US20100291106A1 (Novartis, published 2010).

The target in test [1] is T1, cynomolgus complement C3b protein (cynomolgus monkey (Macaca fascicularis)).
T1 construct: also called cyno C3b; cynoC3b
Kind of test: solution equilibrium titration (SET), ECL detection, Fab.

Test [2] addresses T2, human C5 (human, UniProt P01031 19-673; P01031 678-1676).
T2 construct: Captured by an anti-C5 antibody in the ELISA
Kind of test: cross reactivity, capture ELISA with anti-C5 capture antibody, anti-His detection. (ELISA stands for enzyme-linked immunosorbent assay.)

For test [3], the target named is T1, cynomolgus complement C3b protein. Kind of test: SPR (Biacore), C3b captured by anti-C3d antibody, Fab as analyte.
The target is the same in test [4]. Nature of the test: cell-based or functional assay.
For test [5] the target is unchanged. Nature of the test: SPR (Biacore T100), C3b captured by anti-C3d antibody, IgG as analyte, 1:1 model.
The target of test [6] is T3, human complement C3b protein (human, UniProt P01024 23-667; P01024 749-1663).
T3 construct: Purified plasma C3b (Complement Technology, Quidel); Depending on the assay it was captured by an anti-C3d antibody, coated, biotinylated or coupled to beads; also called human C3b; huC3b
Kind of test: solution equilibrium titration (SET), ECL detection, Fab.

For test [7], the target named is T3, human complement C3b protein. Kind of test: SPR (Biacore), C3b captured by anti-C3d antibody, Fab as analyte. In general terms: SPR reads the build-up and loss of mass on a sensor chip optically.
In test [8] the target is T4, human C3d (human, UniProt P01024 1002-1303).
T4 construct: domain: C3d
Kind of test: cross reactivity, ELISA on C3d, anti-His detection. As for the experimental part: In order to determine whether the anti-C3b antibodies described herein can bind to complement pathway components iC3b and C3c, the following steps were performed: Directly add iC3b(complement Technologies A115), C3d (complement Technologies A117), or C3c (complement Technologies A116), at 2 μg/ml in Carbonate Buffer onto Coat Maxisorp plate Nunc (442404) at 100 μl per well. Seal plates and incubate at 4° C. overnight. Aspirate plates and wash 3 times with PBS/0.5% Tween 20. Block plates with Diluent (PBS, 4% BSA Fraction V (Fisher ICN16006980), 0.1% Tween 20 (Sigma P1379), 0.1% Triton X-100 (Sigma P234729)) and incubate for 2 h at room temperature or overnight at 4° C. Then wash plates once with PBS/0.5% Tween 20. Dilute Fabs at 100 nM and subsequent dilutions (or higher concentration if needed) in diluent and plate 100 μl per well. Incubate at room temperature for 1 h. Wash plates 3 times with PBS/0.5% Tween 20. Add 100 μl/well of anti-Histidine-HRP monoclonal detection antibody at 1:400 in diluent and incubate at room temperature for 1 h. Then wash 4 times with PBS/0.5% Tween 20. Add 100 μl of TMB substrate (Pierce 34028) and incubate at room temperature for up to 5 min. Add 50 μl of Stop solution (2N Sulfuric Acid) to each well and read plate at 450 nm and correct for plastic reading at 570 nm.

Test [9] deals with T3, human complement C3b protein. Kind of test: cell-based or functional assay.
For test [10] the target is unchanged. Kind of test: ELISA, C3b or C3 captured by anti-C3d antibody. The method, then: The C3b antibodies were examined to determine whether they were selective for binding to C3b relative to the C3b precursor C3. Briefly, binding selectivity for C3b was determined by performing the following steps. Coat Maxisorp plate Nunc (442404) with anti-C3d rabbit monoclonal (abcam 17453) at 2 μg/ml in Carbonate Buffer at 100 μl/well. Seal plates and incubate at 4° C. overnight. Aspirate plates and wash 3 times with PBS/0.5% Tween 20. Block plates with Diluent (PBS, 4% BSA Fraction V (Fisher ICN16006980), 0.1% Tween 20 (Sigma P1379), 0.1% Triton X-100 (Sigma P234729)) and incubate for 2 h at room temperature or overnight at 4° C. Then wash plates once with PBS/0.5% Tween 20. Dilute purified C3b (complement technologies A114 lot 21) and C3 (complement technologies A113c) at 1 μg/ml in diluent and plate 100 μl per well. Incubate for 1 h at room temperature. Then wash 3 times with PBS/0.5% Tween 20.
Dilute Fabs at 100 nM and subsequent dilutions (or higher concentration) in diluent and plate 100 μl per well. Incubate at room temperature for 1 h. Wash plates 3 times with PBS/0.5% Tween 20. Add 100 μl/well of anti-Histidine-HRP monoclonal detection antibody at 1:400 in diluent and incubate at room temperature for 1 h. Then wash 4 times with PBS/0.5% Tween 20. Add 100 μl of TMB substrate (Pierce 34028) and incubate at room temperature for up to 5 min. Add 50 μl of Stop solution (2N Sulfuric Acid) to each well and read plate at 450 nm and correct for plastic reading at 570 nm.

Test [11] has the same target. Nature of the test: AlphaScreen bead proximity, C3b-Acceptor beads pre-incubated with antibody, then biotinylated fH and SA-Donor beads; blocked ligand: fH [C]. The method, then:
In brief, purified C3b and fP were conjugated to unconjugated acceptor or donor beads (PerkinElmer) using AminoLink Reductant (Pierce) during a 48 h incubation at room temperature. Beads were quenched using Carboxymethoxylamine Hemihydrochloride (Aldrich), and purified by centrifugation at 13000 rpm and three washes with 0.1M TBST. Purified fB(D24G/N260D) and fH were biotinylated during a 30 min incubation with 20-fold molar excess of NHS-Chromogenic-biotin (Pierce) at room temperature, and purified using Zeba 0.5 ml desalting columns (Pierce).
For C3b-C3b and C3b-fP proximity, Fabs or IgGs respectively were pre-incubated with C3b-Acceptor beads (20 μg/ml) for 60 min at room temperature. C3b-Donor beads or fP-Donor beads (20 μg/ml) were then added, and the plate was incubated overnight at room temperature before reading. For C3b-fB and C3b-fH proximity, antibodies were pre-incubated with C3b-Acceptor beads (20 μg/ml) for 60 minutes at room temperature. Biotinylated fB(D24G/N260D) or fH were then added, and incubated for 60 minutes at room temperature. SA-Donor beads were then added (20 μg/ml) and the plate was incubated overnight at room temperature before reading. Plates were read on the BMG Pherastar (ex=680, em=520-620).
A general note: Alpha assays give light when donor and acceptor beads are brought close together.

For test [12] the target is unchanged. Nature of the test: cell-based or functional assay. The source holds these as a separate data set.
Test [13] deals with T4, human C3d. Nature of the test: C3d binding ELISA, IgG titrated from about 0.006 to 100 nM.
Test [14] concerns the target T3, human complement C3b protein. Kind of test: SPR (Biacore T100), C3b captured by anti-C3d antibody, IgG as analyte, 1:1 model.
Test [15] has as its target T2, human C5. Nature of the test: Direct ELISA at 2 ug/ml C5, 200 nM Fab.

The Kd is the equilibrium constant for the complex coming apart. The term koff denotes a measure of how fast the partners let go of each other. Usually kon stands for the second-order rate constant of association.

Where a chain is given by its changes, count along the chain named.

T4 sequence (P01024 1002-1303 limits assumed): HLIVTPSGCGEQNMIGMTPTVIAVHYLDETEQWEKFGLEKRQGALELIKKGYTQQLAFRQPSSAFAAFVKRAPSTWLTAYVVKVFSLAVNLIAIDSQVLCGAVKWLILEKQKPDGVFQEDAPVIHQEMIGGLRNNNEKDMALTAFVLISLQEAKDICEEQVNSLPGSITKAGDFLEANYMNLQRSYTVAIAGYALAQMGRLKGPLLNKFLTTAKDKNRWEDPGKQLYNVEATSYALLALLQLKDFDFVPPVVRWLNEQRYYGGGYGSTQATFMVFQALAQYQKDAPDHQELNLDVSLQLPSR
T2 sequence (P01031 19-673 limits assumed, chain 1 of 2): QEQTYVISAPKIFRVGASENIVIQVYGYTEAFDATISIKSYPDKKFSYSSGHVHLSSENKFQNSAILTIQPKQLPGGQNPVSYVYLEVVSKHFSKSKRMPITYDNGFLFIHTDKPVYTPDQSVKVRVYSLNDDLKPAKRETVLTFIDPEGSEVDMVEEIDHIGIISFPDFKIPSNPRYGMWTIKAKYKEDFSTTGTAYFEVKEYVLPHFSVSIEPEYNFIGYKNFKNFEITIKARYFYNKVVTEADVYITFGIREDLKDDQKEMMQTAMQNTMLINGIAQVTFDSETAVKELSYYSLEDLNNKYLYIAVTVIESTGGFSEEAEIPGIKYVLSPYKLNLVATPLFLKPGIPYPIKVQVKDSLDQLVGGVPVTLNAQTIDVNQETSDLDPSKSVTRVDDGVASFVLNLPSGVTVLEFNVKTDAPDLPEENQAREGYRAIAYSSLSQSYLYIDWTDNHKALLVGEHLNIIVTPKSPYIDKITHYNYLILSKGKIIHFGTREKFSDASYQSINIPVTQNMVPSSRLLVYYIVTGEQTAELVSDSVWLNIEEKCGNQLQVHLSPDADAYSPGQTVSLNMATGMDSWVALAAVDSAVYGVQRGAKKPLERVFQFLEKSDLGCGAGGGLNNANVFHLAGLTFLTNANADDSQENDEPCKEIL
T2 sequence (P01031 678-1676 limits assumed, chain 2 of 2): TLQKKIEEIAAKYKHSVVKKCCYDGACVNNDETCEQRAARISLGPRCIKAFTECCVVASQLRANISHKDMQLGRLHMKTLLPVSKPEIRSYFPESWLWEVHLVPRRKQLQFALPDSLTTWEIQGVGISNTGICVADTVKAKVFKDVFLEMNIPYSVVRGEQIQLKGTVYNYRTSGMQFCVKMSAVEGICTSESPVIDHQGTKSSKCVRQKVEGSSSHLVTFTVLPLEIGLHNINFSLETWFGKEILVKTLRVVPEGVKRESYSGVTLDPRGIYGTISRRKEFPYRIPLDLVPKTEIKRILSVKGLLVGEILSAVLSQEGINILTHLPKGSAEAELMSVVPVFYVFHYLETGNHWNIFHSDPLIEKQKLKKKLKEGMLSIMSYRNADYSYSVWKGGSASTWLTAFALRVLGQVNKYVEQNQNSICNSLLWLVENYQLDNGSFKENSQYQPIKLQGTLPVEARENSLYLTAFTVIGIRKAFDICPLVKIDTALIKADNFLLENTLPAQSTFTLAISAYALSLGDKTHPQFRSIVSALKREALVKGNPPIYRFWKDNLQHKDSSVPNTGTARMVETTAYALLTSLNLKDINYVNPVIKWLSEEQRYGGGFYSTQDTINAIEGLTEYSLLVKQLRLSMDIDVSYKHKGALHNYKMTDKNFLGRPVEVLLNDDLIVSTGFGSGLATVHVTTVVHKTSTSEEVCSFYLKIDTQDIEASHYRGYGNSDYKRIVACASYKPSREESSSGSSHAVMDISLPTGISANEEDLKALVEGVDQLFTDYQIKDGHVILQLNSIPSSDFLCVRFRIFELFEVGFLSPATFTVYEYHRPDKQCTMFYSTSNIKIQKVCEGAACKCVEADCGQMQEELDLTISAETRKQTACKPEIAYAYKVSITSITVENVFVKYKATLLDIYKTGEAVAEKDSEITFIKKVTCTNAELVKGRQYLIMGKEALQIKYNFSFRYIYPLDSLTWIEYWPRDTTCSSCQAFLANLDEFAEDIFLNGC
T3 sequence (P01024 23-667 P314L, chain 1 of 2): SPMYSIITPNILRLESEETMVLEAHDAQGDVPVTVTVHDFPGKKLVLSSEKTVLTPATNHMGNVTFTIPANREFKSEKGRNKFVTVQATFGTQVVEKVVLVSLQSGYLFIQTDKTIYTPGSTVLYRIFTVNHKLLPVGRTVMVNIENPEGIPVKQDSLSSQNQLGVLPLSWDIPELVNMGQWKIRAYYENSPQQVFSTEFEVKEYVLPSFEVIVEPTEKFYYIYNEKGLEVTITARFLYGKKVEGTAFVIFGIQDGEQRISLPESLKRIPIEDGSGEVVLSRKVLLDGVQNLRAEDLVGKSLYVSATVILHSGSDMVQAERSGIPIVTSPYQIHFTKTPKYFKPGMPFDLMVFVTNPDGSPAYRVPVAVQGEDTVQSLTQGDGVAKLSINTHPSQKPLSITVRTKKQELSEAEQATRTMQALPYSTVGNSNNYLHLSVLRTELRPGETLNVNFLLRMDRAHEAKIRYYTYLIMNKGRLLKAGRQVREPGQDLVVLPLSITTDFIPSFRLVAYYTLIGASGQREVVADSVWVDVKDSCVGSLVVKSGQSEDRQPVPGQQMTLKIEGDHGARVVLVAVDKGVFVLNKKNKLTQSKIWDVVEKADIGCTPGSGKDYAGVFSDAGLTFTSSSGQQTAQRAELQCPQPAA
T3 sequence (P01024 749-1663, chain 2 of 2): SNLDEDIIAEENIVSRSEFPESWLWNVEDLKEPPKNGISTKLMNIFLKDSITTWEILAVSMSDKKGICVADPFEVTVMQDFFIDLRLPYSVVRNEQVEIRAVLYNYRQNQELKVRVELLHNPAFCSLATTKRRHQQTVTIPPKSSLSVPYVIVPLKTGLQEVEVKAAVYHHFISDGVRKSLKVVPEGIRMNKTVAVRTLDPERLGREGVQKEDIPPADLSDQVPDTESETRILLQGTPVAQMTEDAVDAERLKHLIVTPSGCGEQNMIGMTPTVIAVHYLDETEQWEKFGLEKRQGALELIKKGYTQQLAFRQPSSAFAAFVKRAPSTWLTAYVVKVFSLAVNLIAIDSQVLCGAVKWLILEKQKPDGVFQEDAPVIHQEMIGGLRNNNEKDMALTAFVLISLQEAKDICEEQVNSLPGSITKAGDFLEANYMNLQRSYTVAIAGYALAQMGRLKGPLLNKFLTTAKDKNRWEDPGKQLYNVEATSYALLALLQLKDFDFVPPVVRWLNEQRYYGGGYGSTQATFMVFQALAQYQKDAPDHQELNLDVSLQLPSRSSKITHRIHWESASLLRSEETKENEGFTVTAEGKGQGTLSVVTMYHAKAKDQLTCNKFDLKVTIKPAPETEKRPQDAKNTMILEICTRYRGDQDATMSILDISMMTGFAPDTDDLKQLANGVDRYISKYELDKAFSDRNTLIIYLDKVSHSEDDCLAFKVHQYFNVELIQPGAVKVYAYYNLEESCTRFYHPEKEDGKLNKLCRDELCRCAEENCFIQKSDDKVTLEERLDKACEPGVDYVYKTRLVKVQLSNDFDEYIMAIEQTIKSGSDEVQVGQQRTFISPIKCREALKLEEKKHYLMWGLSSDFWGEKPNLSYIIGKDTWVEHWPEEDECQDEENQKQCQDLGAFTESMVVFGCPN

B1: MOR09373 Fab (Fab, V domains shown)
VH: QVQLVQSGAEVKKPGASVKVSCKASGYTFTSYSMHWVRQAPGQGLEWMGLINPYNGNTHYAQKFQGRVTMTRDTSISTAYMELSSLRSEDTAVYYCARMLRFDVWGQGTLVTVSS
VL: DIALTQPASVSGSPGQSITISCTGTSSDGGGYNYVSWYQQHPGKAPKLMIYGVSNRPSGVSNRFSGSKSGNTASLTISGLQAEDEADYYCQTYTRYSDSPVFGGGTKLTVLG
notes: also called Fab 9373
As to B1, binding in test [1] was characterised by a dissociation constant (Kd) of 0.078 nM. Also, the binding result with human C5 [2] is listed as “no binding”. In addition, in [3], the affinity, expressed as Kd, was 0.009 nM. Moreover, in test [4], the “C3b Dep (nM), cyno serum, IC50” value worked out at 5 nM; the “HA (nM), 10% cyno serum, IC50” value amounted to 62 nM; the “MAC Dep (nM), cyno serum, IC50” value is 6 nM.

B2: MOR09674 IgG (antibody, V domains shown)
VH: B1 VH with Q1E
VL: B1 VL with D1E, I2S
notes: Germlined human IgG1 with leucines 234 and 235 changed to alanines, lambda; also called antibody 9674
As for B2, in test [5], binding was put at a Kd of 0.00713 nM, the koff amounted to 5.95e-05 s⁻¹ and the on-rate (kon) worked out at 8.34e+06 M⁻¹ s⁻¹.

B3: MOR09136 Fab (Fab, V domains shown)
VH: QVQLVQSGAEVKKPGSSVKVSCKASGGTFSSYTFSWVRQAPGQGLEWMGNILPIFGDANYAQKFQGRVTITADESTSTAYMELSSLRSEDTAVYYCARNKGAFYYMSTYPSLDVWGQGTLVTVSS
VL: DIQMTQSPSSLSASVGDRVTITCRASQNINYYLNWYQQKPGKAPKLLIYDAFSLQSGVPSRFSGSGSGTDFTLTISSLQPEDFATYYCQQSWSVPPFTFGQGTKVEIKR
notes: also called Fab 9136
B3: the Kd in [6] is 0.096 nM. The Kd in [1] was 0.016 nM. For the same molecule, the binding result in the test with human C5 [2] was “no binding”. For the same molecule, the Kd in test [7] was 0.075 nM. Further, the Kd in [3] was found to be 0.005 nM. Further, the binding result in the test with human C3d [8] is “no binding”. Further, in [9], the “C3b Dep (nM), human serum, IC50” value amounted to 8 nM; the “HA (nM), 10% human serum, IC50” value was found to be 32 nM; the “MAC Dep (nM), human serum, IC50” value amounted to 2 nM. In [4], the “C3b Dep (nM), cyno serum, IC50” value worked out at 3 nM; the “HA (nM), 10% cyno serum, IC50” value turned out to be 52 nM; the “MAC Dep (nM), cyno serum, IC50” value was found to be 3 nM.

B4: MOR09609 IgG (antibody, V domains shown)
VH: B3 VH with Q1E
VL: B3 VL
notes: Germlined human IgG1 with leucines 234 and 235 changed to alanines, kappa; also called antibody 9609
For B4, the “fold binding selectivity for C3b over C3” value in test [10] is > 1000 fold. Also, the “IC50 (read off the curve)” value in [11] is ~0.1 nM. Besides, in [12], the “MAC deposition on zymosan, IC50” value is ≤ 5 nM; the “hemolysis of rabbit red blood cells, 10% human or cynomolgus serum, IC50” value is ≤ 50 nM; the “inhibition of C3a and C5a generation during hemolysis, IC50” value was ≤ 50 nM. Further, the binding result in the test with human C3d [13] is reported as “no binding (tested: 100 nM)”. Also, in test [14], the Kd was found to be 0.0022 nM, the koff turned out to be 3.16e-06 s⁻¹ and the kon stood at 1.44e+06 M⁻¹ s⁻¹. In test [5], this molecule had a Kd of 0.0228 nM, a koff of 4.6e-05 s⁻¹ and a kon of 2.02e+06 M⁻¹ s⁻¹.

B5: MOR09610 IgG (antibody, V domains shown)
VH: B3 VH with Q1E
VL: B3 VL with W92I, S93A
notes: Germlined human IgG1 with leucines 234 and 235 changed to alanines, kappa; also called antibody 9610
On to B5, for which the “fold binding selectivity for C3b over C3” value in [10] was > 1000 fold. In addition, in [11], the “IC50 (read off the curve)” value is ~0.2 nM. In test [12], the “MAC deposition on zymosan, IC50” value was ≤ 5 nM; the “hemolysis of rabbit red blood cells, 10% human or cynomolgus serum, IC50” value was ≤ 50 nM; the “inhibition of C3a and C5a generation during hemolysis, IC50” value is ≤ 50 nM. Besides, the binding result with human C3d [13] is on record as “no binding (tested: 100 nM)”. In test [14], binding was put at a Kd of 0.0049 nM, the koff was 4.02e-06 s⁻¹ and the kon came to 820000 M⁻¹ s⁻¹. Further, in test [5], binding was characterised by a dissociation constant (Kd) of 0.0335 nM, the koff worked out at 6.41e-05 s⁻¹ and the kon came out at 1.91e+06 M⁻¹ s⁻¹.

B6: 9609 (Fab, V domains shown)
VH: B3 VH with Q1E
VL: DIQMTQSPSSLSASVGDRVTITCRASQNINYYLNWYQQKPGKAPKLLIYDAFSLQSGVPSRFSGSGSGTDFTLTISSLQPEDFATYYCQQSWSVPPFTFGQGTKVEIK
notes: the IgG is m13; also called 9609 Fab format; MOR9609 Fab
Consider B6, for which, in the test with human C5 [15], the binding result is reported as “no binding (tested: 200 nM)”.

B7: MOR09141 Fab (Fab, V domains shown)
VH: B3 VH
VL: B3 VL with W92I, S93A
notes: also called Fab 9141
In the case of B7, binding in test [6] was characterised by a dissociation constant (Kd) of 0.1 nM. Also, in [1], binding was put at a Kd of 0.02 nM. In the test with human C5 [2], the binding result was “no binding”. In addition, in test [7], the affinity, expressed as Kd, was 0.039 nM. In test [3], this molecule came in with a Kd of 0.004 nM. The binding result with human C3d [8] is “no binding”. Further, in test [9], the “C3b Dep (nM), human serum, IC50” value worked out at 7 nM; the “HA (nM), 10% human serum, IC50” value was found to be 27 nM; the “MAC Dep (nM), human serum, IC50” value turned out to be 1 nM. For the same molecule, in test [4], the “C3b Dep (nM), cyno serum, IC50” value amounted to 9 nM; the “HA (nM), 10% cyno serum, IC50” value worked out at 43 nM; the “MAC Dep (nM), cyno serum, IC50” value turned out to be 2 nM.
